This note sets out measurements from publication doi:10.1101/2020.02.01.930206 (bioRxiv, 2020).

To fix the notation:
T1: human MMS19 (subunit of the purified CTC) (human, UniProt Q96T76 1-1030)
T1 sequence: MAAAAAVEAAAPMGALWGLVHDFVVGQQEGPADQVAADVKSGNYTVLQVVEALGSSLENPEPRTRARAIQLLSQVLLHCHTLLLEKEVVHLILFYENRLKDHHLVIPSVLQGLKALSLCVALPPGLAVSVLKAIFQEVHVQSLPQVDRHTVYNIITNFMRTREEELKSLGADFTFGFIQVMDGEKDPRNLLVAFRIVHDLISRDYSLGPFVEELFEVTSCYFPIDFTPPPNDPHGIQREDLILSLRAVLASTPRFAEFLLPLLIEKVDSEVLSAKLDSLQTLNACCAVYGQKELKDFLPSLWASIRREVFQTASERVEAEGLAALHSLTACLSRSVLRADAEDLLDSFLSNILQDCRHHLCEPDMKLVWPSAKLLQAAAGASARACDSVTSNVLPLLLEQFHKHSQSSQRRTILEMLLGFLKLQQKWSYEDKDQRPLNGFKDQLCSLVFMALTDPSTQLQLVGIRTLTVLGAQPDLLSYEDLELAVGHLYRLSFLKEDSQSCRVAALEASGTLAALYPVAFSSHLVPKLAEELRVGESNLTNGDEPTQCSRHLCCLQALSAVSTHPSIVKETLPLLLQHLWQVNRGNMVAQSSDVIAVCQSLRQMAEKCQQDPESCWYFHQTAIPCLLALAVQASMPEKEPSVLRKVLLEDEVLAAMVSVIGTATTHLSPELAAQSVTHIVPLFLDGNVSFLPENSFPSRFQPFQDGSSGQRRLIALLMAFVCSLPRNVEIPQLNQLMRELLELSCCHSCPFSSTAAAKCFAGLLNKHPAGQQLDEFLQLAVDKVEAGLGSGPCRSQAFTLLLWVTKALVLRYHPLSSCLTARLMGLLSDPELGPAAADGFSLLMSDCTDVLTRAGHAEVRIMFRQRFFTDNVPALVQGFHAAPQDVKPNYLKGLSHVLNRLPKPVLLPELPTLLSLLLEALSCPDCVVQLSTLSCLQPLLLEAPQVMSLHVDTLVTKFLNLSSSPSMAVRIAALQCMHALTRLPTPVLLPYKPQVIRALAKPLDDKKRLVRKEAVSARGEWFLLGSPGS

T2: Drosophila melanogaster CIAO2B (Drosophila melanogaster, UniProt Q9VTC4 1-156)
T2 sequence: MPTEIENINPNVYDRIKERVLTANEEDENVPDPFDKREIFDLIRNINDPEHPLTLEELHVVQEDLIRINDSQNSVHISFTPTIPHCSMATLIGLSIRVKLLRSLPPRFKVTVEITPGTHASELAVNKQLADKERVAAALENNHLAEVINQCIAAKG

T3: Drosophila melanogaster CIAO1-CIAO2B core complex (Drosophila melanogaster, UniProt Q7K1Y4;Q9VTC4)
T3 sequence 1: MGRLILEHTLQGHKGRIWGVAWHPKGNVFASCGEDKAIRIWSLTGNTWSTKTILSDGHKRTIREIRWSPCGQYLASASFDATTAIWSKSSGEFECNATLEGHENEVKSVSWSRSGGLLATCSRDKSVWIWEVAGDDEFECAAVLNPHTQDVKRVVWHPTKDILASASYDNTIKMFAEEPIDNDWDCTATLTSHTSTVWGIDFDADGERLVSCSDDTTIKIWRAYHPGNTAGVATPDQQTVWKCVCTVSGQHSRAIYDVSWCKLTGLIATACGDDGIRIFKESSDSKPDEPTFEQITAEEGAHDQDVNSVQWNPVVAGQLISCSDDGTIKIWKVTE
T3 sequence 2: T2 sequence

T4: human primase small subunit PriS (human, UniProt P49642 1-420)
T4 sequence: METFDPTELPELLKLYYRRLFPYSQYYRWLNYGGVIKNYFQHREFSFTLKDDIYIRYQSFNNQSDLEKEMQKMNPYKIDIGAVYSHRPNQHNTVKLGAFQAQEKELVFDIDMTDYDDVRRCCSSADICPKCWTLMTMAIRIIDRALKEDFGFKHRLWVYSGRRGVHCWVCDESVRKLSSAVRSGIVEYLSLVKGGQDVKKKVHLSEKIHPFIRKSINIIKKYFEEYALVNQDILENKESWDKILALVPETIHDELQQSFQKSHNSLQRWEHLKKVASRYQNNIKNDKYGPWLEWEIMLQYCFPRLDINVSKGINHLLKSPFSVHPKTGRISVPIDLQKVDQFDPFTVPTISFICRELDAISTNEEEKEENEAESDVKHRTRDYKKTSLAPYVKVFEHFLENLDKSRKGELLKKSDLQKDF

B1: human primase large subunit PriL (natural protein)
chain: MEFSGRKWRKLRLAGDQRNASYPHCLQFYLQPPSENISLIEFENLAIDRVKLLKSVENLGVSYVKGTEQYQSKLESELRKLKFSYRENLEDEYEPRRRDHISHFILRLAYCQSEELRRWFIQQEMDLLRFRFSILPKDKIQDFLKDSQLQFEAISDEEKTLREQEIVASSPSLSGLKLGFESIYKIPFADALDLFRGRKVYLEDGFAYVPLKDIVAIILNEFRAKLSKALALTARSLPAVQSDERLQPLLNHLSHSYTGQDYSTQGNVGKISLDQIDLLSTKSFPPCMRQLHKALRENHHLRHGGRMQYGLFLKGIGLTLEQALQFWKQEFIKGKMDPDKFDKGYSYNIRHSFGKEGKRTDYTPFSCLKIILSNPPSQGDYHGCPFRHSDPELLKQKLQSYKISPGGISQILDLVKGTHYQVACQKYFEMIHNVDDCGFSLNHPNQFFCESQRILNGGKDIKKEPIQPETPQPKPSVQKTKDASSALASLNSSLEMDMEGLEDYFSEDS
B2: C-terminal fragment of mouse MMS19 (residues 911-1031) (domain or fragment)
chain: ELPTLLSLLLEALSCPDSVVQLSTLSCLQPLLLEAPQIMSLHVDTLVTKFLNLSSSYSMAVRIAALQCMHALTRLPTSVLLPYKSQVIRALAKPLDDKKRLVRKEAVSARGEWFLLGSPGS
B3: human CIAO1 (subunit of the purified CTC) (natural protein)
chain: not shown
B4: full-length mouse DNA2 (enzyme)
chain: MEPLDELDLLLLEEDGGAEAVPRVELLRKKADALFPETVLSRGVDNRYLVLAVETSQNERGAEEKRLHVTASQDREHEVLCILRNGWSSVPVEPGDIVHLEGDCTSEPWIIDDDFGYFILYPDMMISGTSVASSIRCLRRAVLSETFRGSDPATRQMLIGTILHEVFQKAISESFAPERLQELALQTLREVRHLKEMYRLNLSQDEILCEVEEYLPSFSKWAEDFMRKGPSSEFPQMQLSLPSDGSNRSSPCNIEVVKSLDIEESIWSPRFGLKGKIDVTVGVKIHRDCKMKYKVMPLELKTGKESNSIEHRSQVVLYTLLSQERREDPEAGWLLYLKTGQMYPVPANHLDKRELLKLRNWLAASLLHRVSRAAPGEEARLSALPQIIEEEKTCKYCSQIGNCALYSRAVEEQGDDASIPEAMLSKIQEETRHLQLAHLKYFSLWCLMLTLESQSKDNRKTHQSIWLTPASELEESGNCVGNLVRTEPVSRVCDGQYLHNFQRKNGPMPATNLMAGDRIILSGEERKLFALSKGYVKKMNKAAVTCLLDRNLSTLPATTVFRLDREERHGDISTPLGNLSKLMESTDPSKRLRELIIDFREPQFIAYLSSVLPHDAKDTVANILKGLNKPQRQAMKRVLLSKDYTLIVGMPGTGKTTTICALVRILSACGFSVLLTSYTHSAVDNILLKLAKFKVGFLRLGQSHKVHPDIQKFTEEEICRSRSIASLAHLEELYNSHPIVATTCMGINHPIFSRKTFDFCIVDEASQISQPVCLGPLFFSRRFVLVGDHQQLPPLVVNREARALGMSESLFKRLERNESAVVQLTVQYRMNRKIMSLSNKLTYAGKLECGSDRVANAVLALPNLKDARLSLQLYADYSDSPWLAGVLEPDNPVCFLNTDKVPAPEQVENGGVSNVTEARLIVFLTSTFIKAGCSPSDIGVIAPYRQQLRIISDLLARSSVGMVEVNTVDKYQGRDKSLILVSFVRSNEDGTLGELLKDWRRLNVALTRAKHKLILLGSVSSLKRFPPLGTLFDHLNAEQLILDLPSREHESLSHILGDCQRD

Assay [1] addresses T1, human MMS19 (subunit of the purified …). Put plainly: cryo-EM structure.
For assay [2], the target named is T2, Drosophila melanogaster CIAO2B. Kind of assay: crystal structure.
Assay [3] addresses T3, Drosophila melanogaster CIAO1-CIAO2B …. Kind of assay: crystal structure.
In assay [4] the target is T4, human primase small subunit PriS. Put plainly: cryo-EM structure.
The assay “full-length mouse DNA2” addresses B4. Put plainly: cryo-EM structure.
The target in assay [5] is full-length human CIA targeting complex (MMS19-CIAO1-CIAO2B) (human, UniProt Q96T76;O76071;Q9Y3D0). Put plainly: cryo-EM structure.
full-length human CIA targeting complex (MMS19-CIAO1-CIAO2B), sequence (O76071 whole entry, chain 2 of 2): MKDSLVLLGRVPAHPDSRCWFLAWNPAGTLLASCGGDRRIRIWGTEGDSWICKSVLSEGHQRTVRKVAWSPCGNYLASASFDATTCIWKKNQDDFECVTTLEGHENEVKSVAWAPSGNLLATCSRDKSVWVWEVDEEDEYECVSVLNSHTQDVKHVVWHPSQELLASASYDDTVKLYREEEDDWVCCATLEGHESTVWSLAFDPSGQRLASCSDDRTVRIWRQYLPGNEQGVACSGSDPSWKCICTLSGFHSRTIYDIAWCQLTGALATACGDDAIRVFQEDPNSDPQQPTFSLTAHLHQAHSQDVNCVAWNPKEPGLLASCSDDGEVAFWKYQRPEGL
full-length human CIA targeting complex (MMS19-CIAO1-CIAO2B), sequence (Q9Y3D0 whole entry, chain 3 of 2): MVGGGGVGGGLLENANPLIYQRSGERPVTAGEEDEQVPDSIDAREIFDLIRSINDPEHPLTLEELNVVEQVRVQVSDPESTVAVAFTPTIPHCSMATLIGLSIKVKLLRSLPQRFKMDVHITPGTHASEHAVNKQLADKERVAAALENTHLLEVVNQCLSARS

B1: the binding result in assay [1] is “binds”.

On to B2, for which the binding result in assay [2] and in assay [3] was “binds” in each case.

With B3, the binding result (in assay [4]; with full-length mouse DNA2) was “binds” each time.

Take B4: the binding result in assay [5] is “binds”.
